# B1: IFN-γ: recombinant mouse IFN-γ (R&D Systems) (protein)
# chain: HGTVIESLESLNNYFNSSGIDVEEKSLFLDIWRNWQKDGDMKILQSQIISFYLRLFEVLKDNQAISNNISVIESHLITTFFSNSKAKKDAFMSIAKFEVNNPQVQRQAFNELIRVVHQLLPESSLRKRKRSRC
# B2: OVA: chicken OVA, a 385 amino acid foreign protein (protein, UniProt P01012 2-386, looked up)
# Ovalbumin: GSIGAASMEFCFDVFKELKVHHANENIFYCPIAIMSALAMVYLGAKDSTRTQINKVVRFDKLPGFGDSIEAQCGTSVNVHSSLRDILNQITKPNDVYSFSLASRLYAEERYPILPEYLQCVKELYRGGLEPINFQTAADQARELINSWVESQTNGIIRNVLQPSSVDSQTAMVLVNAIVFKGLWEKAFKDEDTQAMPFRVTEQESKPVQMMYQIGLFRVASMASEKMKILELPFASGTMSMLVLLPDEVSGLEQLESIINFEKLTEWTSSNVMEERKIKVYLPRMKMEEKYNLTSVLMAMGITDVFSSSANLSGISSAESLKISQAVHAAHAEINEAGREVVGSAEAGVDAASVSEEFRADHPFLFCIKHIATNAVLFFGRCVSP
# B3: human IFN-γ: human IFN-γ (eBioscience), proinflammatory cytokine (protein, UniProt P01579 24-161, looked up)
# Interferon gamma: QDPYVKEAENLKKYFNAGHSDVADNGTLFLGILKNWKEESDRKIMQSQIVSFYFKLFKNFKDDQSIQKSVETIKEDMNVKFFNSNKKKRDDFEKLTNYSVTDLNVQRKAIHELIQVMAELSPAAKTGKRKRSQMLFRG
# Columns and labels:
# [1] = system: primary TH+ neurons (SN, VTA, LC); test: MHC-I induction in murine primary catecholamine neurons, immunofluorescence; assay type: cell-based, mouse
# Description: To study the mechanisms underlying the preferential display of MHC-I by catecholamine neurons, primary neuronal cultures of >7 days in vitro prepared from 0-3 day old C57BL/6 mice were examined in the studies herein (Sulzer et al., 2008). DA neurons from VTA and SN and NE neurons of the LC were identified by immunolabel for TH. MHC-I staining was examined using an antibody raised against the H-2K^b and H-2D^b class I mouse alloantigens.
# B6.129P2-B2m^tm1Unc/J mice were generated by a targeted disruption of the β2m gene, and have little or no MHC-I protein expression on the cell surface^68. […]
# (§1) Images were captured using a Leica SP5 microscope system. There was no fluorescence bleed-through of secondary antibodies under the conditions used. […]
# (§2) In order to assess the proportion of TH^+ and MAP-2^+ neurons that expressed MHC-I^+, first TH^+ and MAP-2^+ neurons were counted in 24 fields surrounding the border of the well at 20× magnification. The number of TH^+ or MAP-2^+ neurons with intact soma and two or more neurites equal to or greater than the diameter of the cell soma was counted. […]
# [2] = system: VM DA (TH+) neurons; test: Antigen processing and presentation, […]-MHC-I immunolabel; assay type: cell-based, mouse; conditions: OVA 7 days, then IFN-γ 72 h
# Protocol: Following exposure of SN neuronal cultures to OVA or vehicle for 7 days, neurons were exposed to IFN-γ or saline for 72 h (note that these cultures were never exposed to […] (SEQ ID NO: 9)). The cultures were then double immunolabeled for TH and an antibody that recognizes only the MHC-I complex when is occupied by […] (SEQ ID NO: 9) ([…]-MHC-I). Occasional label of astrocytes, but not neurons, for […]-MHC-I was observed when the cultures were exposed to the vehicle, IFN-γ, or OVA alone (FIG. 5A). […] The results herein indicate that OVA had been processed to […] (SEQ ID NO: 9) within these mixed neuron/astrocyte cultures and loaded into the MHC-I groove within neuronal cytosol, and that the resulting complex was presented on the neuronal plasma membrane.
# IFN-γ (R&D Systems) was used at a range of non-toxic concentrations for neurons or OT-1 cells (10 μg/ml-100 ng/ml, 72h). […]
# as §1, §2
# [3] = system: hES derived DA neuronal cultures; test: MHC-I induction in hES-derived DA neurons, immunofluorescence; assay type: cell-based, human; conditions: 100 ng/ml, 72h
# Protocol: (§3) hES derived DA neuronal cultures were obtained as described (Kriks et al., 2011). Briefly, H9 human ES cells were subjected to dual SMAD-inhibition followed by exposure to sonic hedgehog, purmorphamine, FGF8 and CHIR99021. Neurons were passaged on day 20, replated on glass-bottom dishes on day 30 at a density of 200.000 cells per 20 μl droplet, and then matured in Neurobasal media with the addition of B27 supplement, GDNF, BDNF, ascorbic acid, cAMP, TGFbeta and DAPT. hES derived spinal motor neuron (MN) cultures expressing EYFP under control of the human synapsin promoter were generated by exposure to dual SMAD-inhibition followed by caudalization with retinoid acid and ventralization through the hedgehog pathway. MN aggregates were replated on day 20 and matured in Neurobasal media with the addition of B27 supplement, GDNF, BDNF, ascorbic acid, cAMP and DAPT.
# (§4) Cultures were treated with human IFN-γ (eBioscience) at a non-toxic concentration for hES (100 ng/ml, 72h). Cultures were then incubated with the MHC-I antibody prior to fixation in 4% paraformaldehyde and double immunofluorescence for TH and MHC-I as above. Micrographs were acquired using a Leica TCS SP5-II inverted confocal microscope.
# [4] = system: hES derived spinal motor neuron (MN) cultures; test: MHC-I induction in hES-derived motor neurons, immunofluorescence; assay type: cell-based, human; conditions: 100 ng/ml, 72h
# Protocol: as §3, §4
molecule,measurement,setting,value
B1,MHC-I (H-2Kb and H-2Db) immunolabel,"[1]; neurons from β2m deficient (MHC-I null, KO) mice",did not induce MHC-I
same,plasma membrane MHC-I expression on TH+ neurons,[1]; wild type C57BL/6 neurons,induced robust plasma membrane neuronal MHC-I expression
B2,TH+ neurons immunolabeled for SIINFEKL-MHC-I,[2],~10%
B3,plasma membrane expression of MHC-I by TH+ neurons,[3],virtually all TH+ neurons
same,MHC-I expression in mature motor neurons,[4],no MHC-I expression was observed

# From patent publication US20170184612A1, “USE OF LEUKOCYTES AND NOVEL BIOMARKERS IN THE DIAGNOSIS, CONFIRMATION, AND TREATMENT OF A NEUROLOGICAL DISORDER” (The Trustees of Columbia University in the City of New York, priority 2014, published 2017)
